# How the values were obtained:
# [1] = molecular target: fluorescein-labeled synthetic MEK2_(4–16) peptide (rat) (rat) (UniProt P36506); experiment: fluorescence polarisation; ERK7 titrated against 100 nM fluorescein-labeled synthetic MEK2 4–16 peptide; single-site binding, global fit
# [2] = molecular target: fluorescein-labeled AC9_(419–452) with an additional N-terminal Cys (Toxoplasma gondii); experiment: fluorescence polarisation; ERK7 2–358 serially diluted against 10 nM fluorescein-AC9 419–452, 20 μL in 384-well plate; single-site binding, global fit of three replicate experiments
# [3] = molecular target: Toxoplasma gondii ERK7 kinase domain, ERK7_(2–358) (Toxoplasma gondii); experiment: fluorescence polarisation; competition: unlabeled AC9 constructs titrated against 10 nM fluorescein-AC9 and 100 nM ERK7; single-site inhibition, global fit
# [4] = molecular target: Shc 423-435 (Homo sapiens) (UniProt P29353); conditions: cited from earlier work
# [5] = molecular target: Toxoplasma gondii ERK7 kinase domain, ERK7_(2–358); experiment: fluorescence polarisation competition; conditions: competition with fluorescein-labeled wild-type AC9
# [6] = molecular target: APS 609-621 (Rattus norvegicus) (UniProt Q9Z200); conditions: cited from earlier work
# Chain of Grb2 SH2 (P62993 57-155): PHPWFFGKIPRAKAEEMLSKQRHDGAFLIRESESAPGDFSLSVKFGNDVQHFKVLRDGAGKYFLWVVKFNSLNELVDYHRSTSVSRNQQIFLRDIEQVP
substance,measurement,setting,value
"Toxoplasma gondii ERK7 kinase domain, ERK7_(2–358) (domain or fragment)",Kd,[1],12000 nM
same,Kd,[2],34 nM
AC9_(W438A) (domain or fragment),Ki,[3],1600 nM
AC9_(R421A/K423A) (domain or fragment),fold reduction of affinity against wild-type AC9,[3],4 fold
WT AC9_(401–452) (domain or fragment),Ki,[3],15 nM
Grb2 SH2 (from UniProt P62993),Kd,[4],18 nM
AC9 wild type R421A; K423A,Ki,[5],63 nM
Cbl TKB (from UniProt P22681),Kd,[6],43 nM

# Reference: paper PMC7275706
